{"source": "patent US20260116946A1", "about": "“NOVEL CD200 FUSION PROTEINS” (DUCENTIS BIOTHERAPEUTICS LIMITED, priority 2022, published 2026)", "key": {"human CD200R": {"target": "T1, human CD200R (Homo sapiens, UniProt Q8TD46)", "T1 construct": "His; purchased Creative Biomart CD200R1-320H", "T1 sequence (Q8TD46 25-348)": "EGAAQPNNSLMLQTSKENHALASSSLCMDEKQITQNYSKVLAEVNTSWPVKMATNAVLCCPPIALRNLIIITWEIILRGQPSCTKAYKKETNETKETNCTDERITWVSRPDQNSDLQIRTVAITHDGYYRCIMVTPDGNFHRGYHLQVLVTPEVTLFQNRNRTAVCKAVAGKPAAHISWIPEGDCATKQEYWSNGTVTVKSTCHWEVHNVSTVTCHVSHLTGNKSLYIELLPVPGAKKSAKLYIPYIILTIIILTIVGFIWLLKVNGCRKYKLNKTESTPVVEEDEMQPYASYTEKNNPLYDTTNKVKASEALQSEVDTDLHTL", "assay": "BIAcore SPR binding of CD200-Fc to human CD200R", "description": "(§1) BIAcore instrumentation uses an optical method, Surface Plasmon Resonance (SPR), to measure the binding characteristics of two interacting molecules; in this case wild-type CD200-Fc or CD200-Fc mutants binding to the CD200 receptor (CD200R). The technique measures changes in the refractive index of one of the two interacting molecules captured on a chip (sensor) when the second molecule is flowed in solution over the captured partner. In these experiments CD200-Fc was immobilized on the chip (sensor) surface and CD200R was injected in an aqueous buffer over the captured CD200-Fc under continuous flow conditions. Changes in the CD200-Fc refractive index following CD200R binding were measured in real time and the result plotted as response units (RUs) versus time to generate sensorgrams.\nThe experiments were performed on a GE Healthcare BIAcore T200. Human, cynomolgus and mouse CD200R proteins were purchased from Creative Biomart (CD200R1-320H, CD200R1-3483C, CD200R1-3280M). All measurements were performed in duplicate.\nFor human CD200 constructs: anti-human Fc (GE Healthcare) was covalently immobilized on a BIAcore CM5 sensor chip (Cytiva, BR100530) by amine coupling using a Cytiva kit (BR100839) following the manufacturer's instructions, targeting immobilization of 8,000-11,000 RU. […]\n(§2) For mouse CD200 constructs, muCD200R-Fc (Creative Biomart CD200R1-458M) diluted to 1 μg/mL in running buffer was flowed over the immobilized Anti-Human IgG Fc, with CD200 monomers serially diluted and flowed over captured CD200R. […] Data analysis: experimental sensorgrams were analyzed in BIAevaluation software (GE Healthcare). […] Closeness of fit was determined by algorithms provided by the manufacturer in the BIAevaluation software, and data accepted if the Chi^2 value was less than 10% of Rmax, and the U value was less than or equal to 15."}, "cyno CD200R": {"system": "cyno CD200R", "assay": "BIAcore SPR binding of CD200-Fc to cynomolgus CD200R", "conditions": "25° C., mean of two runs", "description": "as §1\nThe experiments were performed on a GE Healthcare BIAcore T200. […]\nas §2"}, "[1]": {"assay": "PK study in serum of cynomolgus monkeys", "assay_type": "in vivo", "conditions": "5 mg/kg i.v. bolus; for AUC 0-t: t = 28 days", "method": "2 cynomolgus monkeys per group (one male, one female) were dosed at 5 mg/kg with an i.v. bolus of protein at time 0. Blood samples were taken for PK analysis at the following timepoints: pre-dose, 0.25 hr, 0.5 hr, 1 hr, 4 hr, 8 hr, 24 hr, day 3, day 5, day 7, day 10, day 12, day 14, day 21, day 28.\nAt least 0.8 mL blood samples were collected from a cephalic or saphenous vein at sampling time points from the two animals. For samples collected within the first hour of dosing, a ±1 minute deviation in sample collection time was acceptable. For the remaining time points, samples that were taken within 5% of the scheduled time are acceptable. All blood samples were collected into commercially available tubes containing coagulant. The tubes containing blood samples remained at room temperature for 30 minutes before centrifugation. The samples were centrifuged at 4° C. for 10 minutes at 1500×g within one hour of collection. About 400 μL serum per time point was collected post centrifugation. The samples were then quickly frozen over dry ice and kept at −60° C. or lower until transferred in dry ice for analysis. All samples were uniquely identified to indicate origin and collection time.\nThe concentrations of analyte in serum were determined using a bioanalytical ELISA method. 96-well ELISA plates were coated overnight at 4° C. with 1 μg/ml Goat anti-Human IgG in Carbonate-bicarbonate buffer. After wash and blocking, serial diluted plasma samples were added and then biotin labeled Goat anti-human IgG (0.0625 ug/mL) was used as detection antibody. HRP-Streptavidin and TMB substrate were used for colour development. The reaction was stopped after approximately 5-10 minutes through the addition of 2M HCl. The absorbance was read at 450 nm and 540 nm using a microplate spectrophotometer (SpectraMax® M5e). The OD value of the samples were substituted into the standard curve to obtain the plasma concentration. The detection limit of this ELISA method LLOQ for Fc+Fc is 1 ng/mL.\nThe serum concentration of ARQ-234 in monkeys was subjected to a non-compartmental pharmacokinetic analysis by using the Phoenix WinNonlin software (version 8.1, Pharsight, Mountain View, CA). The linear/log trapezoidal rule was applied in obtaining the PK parameters."}, "[2]": {"conditions": "human CD200R, 25° C., mean of two runs"}}}
{"substance": "ARQ-234: mutated human CD200-Fc fusion protein: CD200 K130Y, I131Y directly fused to IgG4 Fc S228P, M428L, N434S", "values": [{"measurement": "ka", "setting": "human CD200R; [2]", "value": 221600, "unit": "M⁻¹ s⁻¹"}, {"measurement": "kd", "setting": "human CD200R; [2]", "value": 0.0004675, "unit": "s⁻¹"}, {"measurement": "fold greater affinity for human CD200 receptor than wild-type CD200-Fc (DS-155)", "setting": "human CD200R; versus DS-155", "value": "approx. 84 fold"}, {"measurement": "ka", "setting": "cyno CD200R", "value": 159100, "unit": "M⁻¹ s⁻¹"}, {"measurement": "kd", "setting": "cyno CD200R", "value": 0.03997, "unit": "s⁻¹"}, {"measurement": "average half-life in the two animals tested", "setting": "[1]; serum", "value": 15.44, "unit": "days"}, {"measurement": "Cl_obs", "setting": "[1]; animal #3001 (M)", "value": 7.45, "unit": "mL/day/kg"}, {"measurement": "MRTINF_obs", "setting": "[1]; animal #3001 (M)", "value": 17.3, "unit": "days"}, {"measurement": "Vss_obs", "setting": "[1]; animal #3001 (M)", "value": 129, "unit": "mL/kg"}, {"measurement": "Cmax", "setting": "[1]; animal #3001 (M), serum", "value": 127, "unit": "µg/mL"}, {"measurement": "t1/2", "setting": "[1]; animal #3001 (M), serum", "value": 12.4, "unit": "days"}, {"measurement": "AUC 0-t", "setting": "[1]; animal #3001 (M)", "value": 12927, "unit": "µg·h/mL"}, {"measurement": "Cl_obs", "setting": "[1]; animal #3002 (F)", "value": 6.56, "unit": "mL/day/kg"}, {"measurement": "MRTINF_obs", "setting": "[1]; animal #3002 (F)", "value": 25.3, "unit": "days"}, {"measurement": "Vss_obs", "setting": "[1]; animal #3002 (F)", "value": 166, "unit": "mL/kg"}, {"measurement": "Cmax", "setting": "[1]; animal #3002 (F), serum", "value": 124, "unit": "µg/mL"}, {"measurement": "t1/2 (h)", "setting": "[1]; animal #3002 (F), serum, footnote: half-life not accurate (AUC_%Extrap_obs >20% or Rsq_adjusted <0.9)", "value": "443^ h"}, {"measurement": "AUC 0-t", "setting": "[1]; animal #3002 (F)", "value": 12259, "unit": "µg·h/mL"}]}
